Measurements published in patent US20180296707A1, “PHARMACEUTICAL FORMULATION AND METHOD OF PREPARING THE SAME” (SeeCure Taiwan Co., Ltd., priority 2017, published 2018).

What was measured:
[1] = PET/CT imaging, tumor/muscle count density in colorectal tumor models; format: in vivo, athymic nude mice; settings: athymic nude, tumor/muscle, 500 uCi/mouse, total radioactivity, 500 μCi/mouse iv;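 also: human colorectal tumors grown on the hind legs of athymic nude mice, imaged by micro-PET/CT 21 to 28 days post inoculation, once tumors reached roughly 0.5 cm across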
Experimental: (§1) Briefly, athymic nude mice (15±2 g) bearing human tumors (at hind legs) derived from the colorectal and pancreatic cell line were used for imaging studies. Studies were performed 21 to 28 days after inoculation when tumors were approximately 0.5 cm in diameter. Scintigraphic images were obtained either from a micro-PET (Inveon) embedded in the gantries coordinate PET/CT data acquisition. […] The static images were obtained at 0.5, 1 and 2 hrs.

human colorectal tumor = assay: as above; format: in vivo, athymic nude mice; settings: 500 μCi/mouse iv
Experimental: as §1

human pancreatic tumor = assay: PET/CT imaging, tumor/muscle count density in pancreatic tumor models; settings: human pancreatic-tumor bearing mouse, FIG. 12
Experimental: as §1

SSTR3 = SSTR3 (Homo sapiens, UniProt P32745); settings: background statement; cited from earlier work
SSTR3, sequence (P32745 whole entry, species assumed): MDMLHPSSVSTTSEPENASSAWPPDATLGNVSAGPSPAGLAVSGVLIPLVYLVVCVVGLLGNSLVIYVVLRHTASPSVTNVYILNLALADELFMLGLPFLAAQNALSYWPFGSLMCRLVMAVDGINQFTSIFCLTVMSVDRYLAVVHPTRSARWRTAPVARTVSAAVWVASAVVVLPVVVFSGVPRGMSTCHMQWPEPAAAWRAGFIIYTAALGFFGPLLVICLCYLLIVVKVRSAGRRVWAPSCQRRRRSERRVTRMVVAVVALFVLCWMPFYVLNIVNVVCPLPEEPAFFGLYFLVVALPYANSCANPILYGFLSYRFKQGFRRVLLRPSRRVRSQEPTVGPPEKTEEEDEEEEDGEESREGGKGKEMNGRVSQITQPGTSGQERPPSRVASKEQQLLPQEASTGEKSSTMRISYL

SSTR2 = SSTR2 (Homo sapiens, UniProt P30874); settings: background statement; cited from earlier work
SSTR2, sequence (P30874 whole entry, species assumed): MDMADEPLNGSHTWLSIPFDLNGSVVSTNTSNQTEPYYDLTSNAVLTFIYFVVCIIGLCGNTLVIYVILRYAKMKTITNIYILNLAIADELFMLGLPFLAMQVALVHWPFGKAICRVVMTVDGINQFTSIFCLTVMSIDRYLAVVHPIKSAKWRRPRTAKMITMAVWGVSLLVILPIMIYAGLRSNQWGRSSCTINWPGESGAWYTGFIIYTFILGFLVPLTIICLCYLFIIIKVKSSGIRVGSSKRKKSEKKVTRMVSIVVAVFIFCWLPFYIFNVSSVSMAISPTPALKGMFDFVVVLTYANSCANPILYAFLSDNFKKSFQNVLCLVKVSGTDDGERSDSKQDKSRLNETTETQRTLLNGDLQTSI

Work on `C[C@@H](O)[C@H](NC(=O)[C@@H]1CSSC[C@H](NC(=O)[C@@H](Cc2ccccc2)NC(=O)CN2CCN(CC(=O)O)CCN(CC(=O)O)CCN(CC(=O)O)CC2)C(=O)N[C@@H](Cc2ccc(O)cc2)C(=O)N[C@H](Cc2c[nH]c3ccccc23)C(=O)N[C@@H](CCCCN)C(=O)N[C@@H]([C@@H](C)O)C(=O)N1)C(=O)O` [^68Ga-DOTATATE, metal not drawn] yielded a tissue to tissue ratio ([1]; colorectal tumor-bearing mice, dynamic images 0 to 30 minutes, read-out: average tumor/muscle (T/M) count density ratios, approximate range) of 1.2, a tissue to tissue ratio at 15 s ([1]; frame 0, midpoint 15 sec) of 1.2 and a tissue to tissue ratio at 0.5 min ([1]; frame 1, midpoint 30 sec) of 1.05. The tissue to tissue ratio at 45 s ([1]; frame 2, midpoint 45 sec) was 1.26, the tissue to tissue ratio at 1 min ([1]; frame 3, midpoint 60 sec) was 1.27 and the tissue to tissue ratio at 0.025 h ([1]; frame 4, midpoint 90 sec) was 1.24. The tissue to tissue ratio at 2 min ([1]; frame 5, midpoint 120 sec) was 1.3, the tissue to tissue ratio at 0.05 h ([1]; frame 6, midpoint 180 sec) was 1.21 and the tissue to tissue ratio at 4 min ([1]; frame 7, midpoint 240 sec) was 1.3. It also gave a tissue to tissue ratio at 5 min ([1]; frame 8, midpoint 300 sec) of 1.3, a tissue to tissue ratio at 0.1 h ([1]; frame 9, midpoint 360 sec) of 1.23 and a tissue to tissue ratio at 0.15 h ([1]; frame 10, midpoint 540 sec) of 1.25. The tissue to tissue ratio at 0.2 h ([1]; frame 11, midpoint 720 sec) was 1.3, the tissue to tissue ratio at 0.25 h ([1]; frame 12, midpoint 900 sec) was 1.29 and the tissue to tissue ratio at 20 min ([1]; frame 13, midpoint 1200 sec) was 1.42. It also gave a tissue to tissue ratio at 25 min ([1]; frame 14, midpoint 1500 sec) of 1.44, a tissue to tissue ratio at 0.5 h ([1]; frame 15, midpoint 1800 sec) of 1.55 and a Muscle count density (human colorectal tumor; frame 0, midpoint 15 sec) of 0.242. For the same compound, the Tumor count density (human colorectal tumor; frame 0, midpoint 15 sec) was 0.290, the Muscle count density (human colorectal tumor; frame 1, midpoint 30 sec) was 0.273 and the Tumor count density (human colorectal tumor; frame 1, midpoint 30 sec) was 0.286. For the same compound, the Muscle count density (human colorectal tumor; frame 2, midpoint 45 sec) was 0.237, the Tumor count density (human colorectal tumor; frame 2, midpoint 45 sec) was 0.298 and the Muscle count density (human colorectal tumor; frame 3, midpoint 60 sec) was 0.255. For the same compound, the Tumor count density (human colorectal tumor; frame 3, midpoint 60 sec) was 0.324, the Muscle count density (human colorectal tumor; frame 4, midpoint 90 sec) was 0.238 and the Tumor count density (human colorectal tumor; frame 4, midpoint 90 sec) was 0.296. It also gave a Muscle count density (human colorectal tumor; frame 5, midpoint 120 sec) of 0.227, a Tumor count density (human colorectal tumor; frame 5, midpoint 120 sec) of 0.296 and a Muscle count density (human colorectal tumor; frame 6, midpoint 180 sec) of 0.235. For the same compound, the Tumor count density (human colorectal tumor; frame 6, midpoint 180 sec) was 0.284, the Muscle count density (human colorectal tumor; frame 7, midpoint 240 sec) was 0.233 and the Tumor count density (human colorectal tumor; frame 7, midpoint 240 sec) was 0.303. It also gave a Muscle count density (human colorectal tumor; frame 8, midpoint 300 sec) of 0.231, a Tumor count density (human colorectal tumor; frame 8, midpoint 300 sec) of 0.300 and a Muscle count density (human colorectal tumor; frame 9, midpoint 360 sec) of 0.232. The Tumor count density (human colorectal tumor; frame 9, midpoint 360 sec) was 0.286, the Muscle count density (human colorectal tumor; frame 10, midpoint 540 sec) was 0.230 and the Tumor count density (human colorectal tumor; frame 10, midpoint 540 sec) was 0.287. For the same compound, the Muscle count density (human colorectal tumor; frame 11, midpoint 720 sec) was 0.231, the Tumor count density (human colorectal tumor; frame 11, midpoint 720 sec) was 0.300 and the Muscle count density (human colorectal tumor; frame 12, midpoint 900 sec) was 0.227. For the same compound, the Tumor count density (human colorectal tumor; frame 12, midpoint 900 sec) was 0.294, the Muscle count density (human colorectal tumor; frame 13, midpoint 1200 sec) was 0.206 and the Tumor count density (human colorectal tumor; frame 13, midpoint 1200 sec) was 0.292. The Muscle count density (human colorectal tumor; frame 14, midpoint 1500 sec) was 0.200, the Tumor count density (human colorectal tumor; frame 14, midpoint 1500 sec) was 0.288 and the Muscle count density (human colorectal tumor; frame 15, midpoint 1800 sec) was 0.180. It also gave a Tumor count density (human colorectal tumor; frame 15, midpoint 1800 sec) of 0.279.
With `O=C([O-])CN1CCN(CC(=O)[O-])CCN(CC(=O)O)CCN(CC(=O)[O-])CC1.[68Ga+3]` [^68Ga-DOTA] the “bladder uptake (PET/CT)” value (human pancreatic tumor) was “high bladder uptake”, the “clearance (PET/CT)” value (human pancreatic tumor) was “fast clearance” and the “visualization of neuroendocrine tumors by PET/CT” value (human pancreatic tumor) was “could not be used to visualize neuroendocrine tumors”.
For `C[C@@H](O)[C@@H]1NC(=O)[C@H](CCCCN)NC(=O)[C@@H](Cc2c[nH]c3ccccc23)NC(=O)[C@H](Cc2ccccc2)NC(=O)[C@@H](NC(=O)[C@H](N)Cc2ccccc2)CSSC[C@@H](C(=O)N[C@H](CO)[C@@H](C)O)NC1=O` [octreotide], the “affinity to SSTR3 subtype” value (SSTR3) is listed as “low affinity” and the “affinity to SSTR2 subtype” value (SSTR2) is listed as “high affinity”.
